# Results from publication PMC9482650, “Quantitative fragmentomics allow affinity mapping of interactomes” (Nature Communications, 2022).
# T1: SNTA1, Q13424
# T1 sequence (Q13424 82-180, limits assumed, looked up): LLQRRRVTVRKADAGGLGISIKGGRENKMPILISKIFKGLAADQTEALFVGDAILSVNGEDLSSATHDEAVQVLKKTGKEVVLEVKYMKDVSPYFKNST
# T2: GRIP1_2, Q9Y3R0
# T2 sequence (Q9Y3R0 145-248, limits assumed, looked up): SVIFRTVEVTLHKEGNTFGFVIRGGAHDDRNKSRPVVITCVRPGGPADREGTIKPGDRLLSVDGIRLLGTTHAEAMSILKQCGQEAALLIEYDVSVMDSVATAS
# T3: TX1BP3, O14907
# T3 sequence (O14907 10-122, limits assumed, looked up): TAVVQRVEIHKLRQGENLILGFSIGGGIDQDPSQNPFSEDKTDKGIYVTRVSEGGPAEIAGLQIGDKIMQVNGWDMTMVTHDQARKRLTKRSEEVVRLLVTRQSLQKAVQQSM
# T4: LIN7C, Q9NUP9
# T4 sequence (Q9NUP9 88-185, limits assumed, looked up): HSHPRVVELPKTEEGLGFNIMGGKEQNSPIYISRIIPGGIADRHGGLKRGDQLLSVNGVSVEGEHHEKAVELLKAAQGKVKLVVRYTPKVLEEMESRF
# T5: RHPN1, Q8TCX5
# T5 sequence (Q8TCX5 508-602, limits assumed, looked up): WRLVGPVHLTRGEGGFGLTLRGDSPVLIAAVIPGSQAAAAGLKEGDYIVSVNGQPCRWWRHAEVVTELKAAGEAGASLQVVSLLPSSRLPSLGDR
# T6: RAPGEF6, Q8TEU7
# T6 sequence (Q8TEU7 525-625, limits assumed, looked up): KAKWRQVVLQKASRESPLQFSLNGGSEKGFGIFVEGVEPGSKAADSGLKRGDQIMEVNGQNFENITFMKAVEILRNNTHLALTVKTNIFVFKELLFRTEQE
# T7: APBA1_1, Q02410
# T7 sequence (Q02410 651-752, limits assumed, looked up): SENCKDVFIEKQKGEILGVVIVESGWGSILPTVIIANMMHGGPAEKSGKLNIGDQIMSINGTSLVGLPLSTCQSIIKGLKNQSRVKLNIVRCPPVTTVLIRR
# T8: SNTB1, Q13884
# T8 sequence (Q13884 107-205, limits assumed, looked up): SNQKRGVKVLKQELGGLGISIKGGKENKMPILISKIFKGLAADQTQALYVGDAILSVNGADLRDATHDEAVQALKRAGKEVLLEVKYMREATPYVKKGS
# T9: DVL3, Q92997
# T9 sequence (Q92997 244-331, limits assumed, looked up): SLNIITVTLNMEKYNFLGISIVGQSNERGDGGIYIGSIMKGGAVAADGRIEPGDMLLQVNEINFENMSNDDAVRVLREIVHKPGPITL
# T10: SNTG1, Q9NSN8
# T10 sequence (Q9NSN8 52-150, limits assumed, looked up): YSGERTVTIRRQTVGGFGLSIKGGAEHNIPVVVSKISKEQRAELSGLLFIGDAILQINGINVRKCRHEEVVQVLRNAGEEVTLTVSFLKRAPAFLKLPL
# T11: HTRA4, P83105
# T11 sequence (P83105 378-476, limits assumed, looked up): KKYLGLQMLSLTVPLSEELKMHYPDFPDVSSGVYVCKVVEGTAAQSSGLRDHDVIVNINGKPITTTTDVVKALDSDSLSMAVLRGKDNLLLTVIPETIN
# Target: Inadl_8, Q8NI35
# Sequence (Q8NI35 1425-1530): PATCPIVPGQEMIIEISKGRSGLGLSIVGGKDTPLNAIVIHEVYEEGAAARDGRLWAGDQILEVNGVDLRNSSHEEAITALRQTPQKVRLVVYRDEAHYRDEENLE
# Test: holdup assay
# Set-up: key: below the threshold = too weak to quantify, mostly under pKd 3.1 to 4
# Conditions: plain residues with an end cap or a label only (N-terminal biotin on a linker: ado-ado)
row,Binder,pKd
1,"EDLTKNHDEL [RCN1, Q15293]",below the threshold

# Target: T1, SNTA1, Q13424
# Test: holdup assay
# Set-up: key: below the threshold = too weak to quantify, mostly under pKd 3.1 to 4
# Conditions: plain residues with an end cap or a label only (N-terminal biotin on a linker: ado-ado)
row,Binder,pKd
1,"EDLTKNHDEL [RCN1, Q15293]",3.5

# Target: LIMK2, P53671
# Sequence (P53671 143-248): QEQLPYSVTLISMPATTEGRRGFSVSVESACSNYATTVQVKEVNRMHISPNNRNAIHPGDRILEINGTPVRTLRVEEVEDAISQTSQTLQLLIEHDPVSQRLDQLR
# Test: holdup assay
# Set-up: key: below the threshold = too weak to quantify, mostly under pKd 3.1 to 4
# Conditions: plain residues with an end cap or a label only (N-terminal biotin on a linker: ado-ado)
row,Binder,pKd
1,"EDLTKNHDEL [RCN1, Q15293]",below the threshold

# Target: TJP2_1, Q9UDY2
# Sequence (Q9UDY2 24-128): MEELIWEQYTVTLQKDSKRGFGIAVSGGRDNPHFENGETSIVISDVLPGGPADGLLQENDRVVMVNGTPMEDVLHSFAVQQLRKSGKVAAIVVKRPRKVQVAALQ
# Test: holdup assay
# Set-up: key: below the threshold = too weak to quantify, mostly under pKd 3.1 to 4
# Conditions: plain residues with an end cap or a label only (N-terminal biotin on a linker: ado-ado)
row,Binder,pKd
1,"EDLTKNHDEL [RCN1, Q15293]",below the threshold

# Target: MAGI2_5, Q86UL8
# Sequence (Q86UL8 915-1017): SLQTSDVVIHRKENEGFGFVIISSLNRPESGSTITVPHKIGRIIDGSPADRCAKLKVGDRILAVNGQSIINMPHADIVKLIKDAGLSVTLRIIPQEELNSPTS
# Test: holdup assay
# Set-up: key: below the threshold = too weak to quantify, mostly under pKd 3.1 to 4
# Conditions: plain residues with an end cap or a label only (N-terminal biotin on a linker: ado-ado)
row,Binder,pKd
1,"EDLTKNHDEL [RCN1, Q15293]",below the threshold

# Target: NHERF4_1, Q86UT5-2
# Sequence (Q86UT5 other isoform, or with tags, fused parts or gaps): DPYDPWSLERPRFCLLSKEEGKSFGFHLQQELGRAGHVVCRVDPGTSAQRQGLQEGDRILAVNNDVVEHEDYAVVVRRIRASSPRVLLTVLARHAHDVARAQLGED
# Test: holdup assay
# Set-up: key: below the threshold = too weak to quantify, mostly under pKd 3.1 to 4
# Conditions: plain residues with an end cap or a label only (N-terminal biotin on a linker: ado-ado)
row,Binder,pKd
1,"EDLTKNHDEL [RCN1, Q15293]",3.93

# Target: T2, GRIP1_2, Q9Y3R0
# Test: holdup assay
# Set-up: key: below the threshold = too weak to quantify, mostly under pKd 3.1 to 4
# Conditions: plain residues with an end cap or a label only (N-terminal biotin on a linker: ado-ado)
row,Binder,pKd
1,"EDLTKNHDEL [RCN1, Q15293]",below the threshold

# Target: T3, TX1BP3, O14907
# Test: holdup assay
# Set-up: key: below the threshold = too weak to quantify, mostly under pKd 3.1 to 4
# Conditions: plain residues with an end cap or a label only (N-terminal biotin on a linker: ado-ado)
row,Binder,pKd
1,"EDLTKNHDEL [RCN1, Q15293]",below the threshold

# Target: T4, LIN7C, Q9NUP9
# Test: holdup assay
# Set-up: key: below the threshold = too weak to quantify, mostly under pKd 3.1 to 4
# Conditions: plain residues with an end cap or a label only (N-terminal biotin on a linker: ado-ado)
row,Binder,pKd
1,"EDLTKNHDEL [RCN1, Q15293]",below the threshold

# Target: T5, RHPN1, Q8TCX5
# Test: holdup assay
# Set-up: key: below the threshold = too weak to quantify, mostly under pKd 3.1 to 4
# Conditions: plain residues with an end cap or a label only (N-terminal biotin on a linker: ado-ado)
row,Binder,pKd
1,"EDLTKNHDEL [RCN1, Q15293]",3.79

# Target: T6, RAPGEF6, Q8TEU7
# Test: holdup assay
# Set-up: key: below the threshold = too weak to quantify, mostly under pKd 3.1 to 4
# Conditions: plain residues with an end cap or a label only (N-terminal biotin on a linker: ado-ado)
row,Binder,pKd
1,"EDLTKNHDEL [RCN1, Q15293]",below the threshold

# Target: Inadl_10, Q8NI35
# Sequence (Q8NI35 1673-1763): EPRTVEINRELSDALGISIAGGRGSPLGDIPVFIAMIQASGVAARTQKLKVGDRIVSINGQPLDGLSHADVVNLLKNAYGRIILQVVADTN
# Test: holdup assay
# Set-up: key: below the threshold = too weak to quantify, mostly under pKd 3.1 to 4
# Conditions: plain residues with an end cap or a label only (N-terminal biotin on a linker: ado-ado)
row,Binder,pKd
1,"EDLTKNHDEL [RCN1, Q15293]",below the threshold

# Target: T7, APBA1_1, Q02410
# Test: holdup assay
# Set-up: key: below the threshold = too weak to quantify, mostly under pKd 3.1 to 4
# Conditions: plain residues with an end cap or a label only (N-terminal biotin on a linker: ado-ado)
row,Binder,pKd
1,"EDLTKNHDEL [RCN1, Q15293]",below the threshold

# Target: T8, SNTB1, Q13884
# Test: holdup assay
# Set-up: key: below the threshold = too weak to quantify, mostly under pKd 3.1 to 4
# Conditions: plain residues with an end cap or a label only (N-terminal biotin on a linker: ado-ado)
row,Binder,pKd
1,"EDLTKNHDEL [RCN1, Q15293]",below the threshold

# Target: MAST2, Q6P0Q8
# Sequence (Q6P0Q8 1099-1202): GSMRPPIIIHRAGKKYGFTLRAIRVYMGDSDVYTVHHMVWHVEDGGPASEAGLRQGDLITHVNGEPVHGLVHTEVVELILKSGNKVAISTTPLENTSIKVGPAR
# Test: holdup assay
# Set-up: key: below the threshold = too weak to quantify, mostly under pKd 3.1 to 4
# Conditions: plain residues with an end cap or a label only (N-terminal biotin on a linker: ado-ado)
row,Binder,pKd
1,"EDLTKNHDEL [RCN1, Q15293]",below the threshold

# Target: T9, DVL3, Q92997
# Test: holdup assay
# Set-up: key: below the threshold = too weak to quantify, mostly under pKd 3.1 to 4
# Conditions: plain residues with an end cap or a label only (N-terminal biotin on a linker: ado-ado)
row,Binder,pKd
1,"EDLTKNHDEL [RCN1, Q15293]",below the threshold

# Target: MAGI2_2, Q86UL8
# Sequence (Q86UL8 410-522): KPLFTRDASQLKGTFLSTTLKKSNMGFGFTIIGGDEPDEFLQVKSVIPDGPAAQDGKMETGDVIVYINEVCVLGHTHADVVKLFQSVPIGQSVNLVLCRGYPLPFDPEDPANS
# Test: holdup assay
# Set-up: key: below the threshold = too weak to quantify, mostly under pKd 3.1 to 4
# Conditions: plain residues with an end cap or a label only (N-terminal biotin on a linker: ado-ado)
row,Binder,pKd
1,"EDLTKNHDEL [RCN1, Q15293]",below the threshold

# Target: ARHGEF12, Q9NZN5-2
# Sequence (Q9NZN5 other isoform, or with tags, fused parts or gaps): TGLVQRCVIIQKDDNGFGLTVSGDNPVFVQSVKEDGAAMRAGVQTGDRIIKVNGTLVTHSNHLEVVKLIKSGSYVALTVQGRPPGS
# Test: holdup assay
# Set-up: key: below the threshold = too weak to quantify, mostly under pKd 3.1 to 4
# Conditions: plain residues with an end cap or a label only (N-terminal biotin on a linker: ado-ado)
row,Binder,pKd
1,"EDLTKNHDEL [RCN1, Q15293]",3.51

# Target: NHERF4_4, Q86UT5
# Sequence (Q86UT5 464-550): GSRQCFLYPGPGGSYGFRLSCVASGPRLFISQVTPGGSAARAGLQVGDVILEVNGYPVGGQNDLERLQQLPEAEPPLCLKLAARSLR
# Test: holdup assay
# Set-up: key: below the threshold = too weak to quantify, mostly under pKd 3.1 to 4
# Conditions: plain residues with an end cap or a label only (N-terminal biotin on a linker: ado-ado)
row,Binder,pKd
1,"EDLTKNHDEL [RCN1, Q15293]",4.01

# Target: DLG5_1, Q8TDM6
# Sequence (Q8TDM6 617-713): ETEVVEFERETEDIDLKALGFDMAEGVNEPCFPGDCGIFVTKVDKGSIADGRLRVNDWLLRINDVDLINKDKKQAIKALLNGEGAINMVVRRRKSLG
# Test: holdup assay
# Set-up: key: below the threshold = too weak to quantify, mostly under pKd 3.1 to 4
# Conditions: plain residues with an end cap or a label only (N-terminal biotin on a linker: ado-ado)
row,Binder,pKd
1,"EDLTKNHDEL [RCN1, Q15293]",3.49

# Target: DLG2_3, Q15700
# Test: holdup assay
# Set-up: key: below the threshold = too weak to quantify, mostly under pKd 3.1 to 4
# Conditions: plain residues with an end cap or a label only (N-terminal biotin on a linker: ado-ado)
row,Binder,pKd
1,"EDLTKNHDEL [RCN1, Q15293]",below the threshold

# Target: GRIP2_3, Q9C0E4
# Sequence (Q9C0E4 238-339): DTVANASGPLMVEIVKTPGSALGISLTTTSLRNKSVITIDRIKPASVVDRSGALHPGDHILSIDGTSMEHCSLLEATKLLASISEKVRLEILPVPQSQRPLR
# Test: holdup assay
# Set-up: key: below the threshold = too weak to quantify, mostly under pKd 3.1 to 4
# Conditions: plain residues with an end cap or a label only (N-terminal biotin on a linker: ado-ado)
row,Binder,pKd
1,"EDLTKNHDEL [RCN1, Q15293]",3.51

# Target: IL16_1, Q14005
# Sequence (Q14005 210-306): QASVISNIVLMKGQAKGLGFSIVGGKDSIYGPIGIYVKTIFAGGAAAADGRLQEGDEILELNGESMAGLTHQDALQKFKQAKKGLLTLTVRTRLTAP
# Test: holdup assay
# Set-up: key: below the threshold = too weak to quantify, mostly under pKd 3.1 to 4
# Conditions: plain residues with an end cap or a label only (N-terminal biotin on a linker: ado-ado)
row,Binder,pKd
1,"EDLTKNHDEL [RCN1, Q15293]",below the threshold

# Target: DLG1_2, Q12959
# Sequence (Q12959 314-412): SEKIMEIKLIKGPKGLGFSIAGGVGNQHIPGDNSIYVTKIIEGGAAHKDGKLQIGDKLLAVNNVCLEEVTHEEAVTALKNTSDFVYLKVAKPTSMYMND
# Test: holdup assay
# Set-up: key: below the threshold = too weak to quantify, mostly under pKd 3.1 to 4
# Conditions: plain residues with an end cap or a label only (N-terminal biotin on a linker: ado-ado)
row,Binder,pKd
1,"EDLTKNHDEL [RCN1, Q15293]",below the threshold

# Target: T10, SNTG1, Q9NSN8
# Test: holdup assay
# Set-up: key: below the threshold = too weak to quantify, mostly under pKd 3.1 to 4
# Conditions: plain residues with an end cap or a label only (N-terminal biotin on a linker: ado-ado)
row,Binder,pKd
1,"EDLTKNHDEL [RCN1, Q15293]",3.64

# Target: T11, HTRA4, P83105
# Test: holdup assay
# Set-up: key: below the threshold = too weak to quantify, mostly under pKd 3.1 to 4
# Conditions: plain residues with an end cap or a label only (N-terminal biotin on a linker: ado-ado)
row,Binder,pKd
1,"EDLTKNHDEL [RCN1, Q15293]",below the threshold
